No end group written: not given here.

Experiment [1] addresses T1, rSdrG(50-597) (Staphylococcus epidermidis K28, UniProt Q9KI13 50-597).
T1 construct: Used biotin labeled in the Western ligand blots and in the ELISAs on protease-treated Fg; also called recombinant SdrG A-region; recombinant form of the N-terminal A-region of SdrG
T1 sequence: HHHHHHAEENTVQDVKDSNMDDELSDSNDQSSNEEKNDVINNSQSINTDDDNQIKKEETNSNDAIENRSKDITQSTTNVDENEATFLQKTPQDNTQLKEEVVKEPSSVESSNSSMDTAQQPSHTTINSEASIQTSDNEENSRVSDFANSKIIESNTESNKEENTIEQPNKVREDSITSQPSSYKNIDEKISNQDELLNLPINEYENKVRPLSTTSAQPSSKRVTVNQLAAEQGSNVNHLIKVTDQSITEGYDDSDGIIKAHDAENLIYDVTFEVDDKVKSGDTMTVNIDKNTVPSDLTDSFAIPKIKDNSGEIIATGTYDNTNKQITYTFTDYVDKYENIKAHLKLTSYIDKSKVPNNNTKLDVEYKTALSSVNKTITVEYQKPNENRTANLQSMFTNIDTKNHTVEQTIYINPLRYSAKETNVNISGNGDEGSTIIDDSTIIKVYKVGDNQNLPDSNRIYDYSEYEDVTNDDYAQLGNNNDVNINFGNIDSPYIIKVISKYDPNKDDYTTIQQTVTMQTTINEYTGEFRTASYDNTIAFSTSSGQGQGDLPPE
As to the kind of experiment: Western ligand blot.

For experiment [2], the target named is T1, rSdrG(50-597). Briefly: inhibition ELISA, peptide varied, 50 nM rSdrG(50-597), Fg-coated wells.
Experiment [3] deals with T1, rSdrG(50-597). As to the kind of experiment: Western ligand blot of E. coli lysates, biotin labeled rSdrG(50-597) 0.5 µM.
Experiment [4] concerns the target T1, rSdrG(50-597). Briefly: Western ligand blot, biotin labeled rSdrG(50-597).
The target of experiment [5] is T1, rSdrG(50-597). As to the kind of experiment: fluorescence polarization, increasing rSdrG(50-597) with 10 nM fluorescein-labeled β1-25, three experiments.
Experiment [6] addresses T1, rSdrG(50-597). Briefly: inhibition ELISA, peptide varied, 50 nM rSdrG(50-597), Fg-coated wells; reference β1-25.

B1: native Bβ chain of fibrinogen (ligand)
chain: QGVNDNEEGFFSARGHRPLDKKREEAPSLRPAPPPISGGGYRARPAKAAATQKKVERKAPDAGGCLHADPDLGVLCPTGCQLQEALLQQERPIRNSVDELNNNVEAVSQTSSSSFQYMYLLKDLWQKRQKQVKDNENVVNEYSSELEKHQLYIDETVNSNIPTNLRVLRSILENLRSKIQKLESDVSAQMEYCRTPCTVSCNIPVVSGKECEEIIRKGGETSEMYLIQPDSSVKPYRVYCDMNTENGGWTVIQNRQDGSVDFGRKWDPYKQGFGNVATNTDGKNYCGLPGEYWLGNDKISQLTRMGPTELLIEMEDWKGDKVKAHYGGFTVQNEANKYQISVNKYRGTAGNALMDGASQLMGENRTMTIHNGMFFSTYDRDNDGWLTSDPRKQCSKEDGGGWWYNRCHAANPNGRYYWGGQYTWDMAKHGTDDGVVWMNWKGSWYSMRKMSMKIRPFFPQQ
notes: Chain of native Fg on a Western ligand blot; also called Fg Bβ chain
For B1, in the experiment with rSdrG(50-597) [1], the binding result is recorded as “binds”.
Regarding NEEGFFSARGHRPLDKKREE (Synthetic peptide (Research Genetics)) [peptide β6-25], the binding result with rSdrG(50-597) [2] was “binds”.

B2: rβ(1-220) (ligand)
chain: QGVNDNEEGFFSARGHRPLDKKREEAPSLRPAPPPISGGGYRARPAKAAATQKKVERKAPDAGGCLHADPDLGVLCPTGCQLQEALLQQERPIRNSVDELNNNVEAVSQTSSSSFQYMYLLKDLWQKRQKQVKDNENVVNEYSSELEKHQLYIDETVNSNIPTNLRVLRSILENLRSKIQKLESDVSAQMEYCRTPCTVSCNIPVVSGKECEEIIRKGGE
notes: range 1-220; Expressed in E. coli; whole cell lysate on the blot; also called recombinant truncate encompassing residues 1-220; not shown: N-terminal His-tag or GST fusion
Consider B2, for which the binding result with rSdrG(50-597) [3] is reported as “binds”.

B3: peptide β1-25 (peptide)
peptide: QGVNDNEEGFFSARGHRPLDKKREE
modifications: ends and bridges not checked
notes: Synthetic peptide (Research Genetics); also called unlabeled β1-25; synthetic 25 amino acid peptide representing the N-terminus of the Fg Bβ chain
On to B3, for which the binding result in the experiment with rSdrG(50-597) [2] is recorded as “binds”.

B4: γ chain of Fg (ligand)
chain: YVATRDNCCILDERFGSYCPTTCGIADFLSTYQTKVDKDLQSLEDILHQVENKTSEVKQLIKAIQLTYNPDESSKPNMIDAATLKSRKMLEEIMKYEASILTHDSSIRYLQEIYNSNNQKIVNLKEKVAQLEAQCQEPCKDTVQIHDITGKDCQDIANKGAKQSGLYFIKPLKANQQFLVYCEIDGSGNGWTVFQKRLDGSVDFKKNWIQYKEGFGHLSPTGTTEFWLGNEKIHLISTQSAIPYALRVELEDWNGRTSTADYAMFKVGPEADKYRLTYAYFAGGDAGDAFDGFDFGDDPSDKFFTSHNGMQFSTWDNDNDKFEGNCAEQDGSGWWMNKCHAGHLNGVYYQGGTYSKASTPNGYDNGIIWATWKTRWYSMKKTTMKIIPFNRLTIGEGQQHHLGGAKQAGDV
notes: Chain of native Fg on a Western ligand blot
On to B4, for which the binding result in the experiment with rSdrG(50-597) [4] is “no binding”.

B5: fluorescein-labeled β1-25 peptide (peptide)
peptide: QGVNDNEEGFFSARGHRPLDKKREE
modifications: ends and bridges not checked; also: fluorescein label, position not given here
notes: used at 10 nM in fluorescence polarization; also called fluorescein-labeled N-terminal Bβ chain peptide β1-25; labeled peptide
For the molecule B5, in the experiment with rSdrG(50-597) [5], the Kd was found to be 140 nM. This lies in the sub-micromolar range.

B6: peptide β6-20 (peptide)
peptide: NEEGFFSARGHRPLD
notes: Synthetic peptide made in the inventors' laboratory
B6: the binding result in the experiment with rSdrG(50-597) [2] is listed as “binds”.
For QGVNDNEEGFFSARGHRPLD (ends and bridges not checked, Synthetic peptide (Research Genetics)) [peptide β1-20], the binding result in the experiment with rSdrG(50-597) [2] is on record as “binds”.

B7: rβ(1-95) (ligand)
chain: QGVNDNEEGFFSARGHRPLDKKREEAPSLRPAPPPISGGGYRARPAKAAATQKKVERKAPDAGGCLHADPDLGVLCPTGCQLQEALLQQERPIRN
notes: range 1-95; Expressed in E. coli; whole cell lysate on the blot; also called recombinant truncate encompassing residues 1-95; not shown: N-terminal His-tag or GST fusion
On to B7, for which the binding result with rSdrG(50-597) [3] is listed as “binds”.

B8: rβ(25-195) (ligand)
chain: EAPSLRPAPPPISGGGYRARPAKAAATQKKVERKAPDAGGCLHADPDLGVLCPTGCQLQEALLQQERPIRNSVDELNNNVEAVSQTSSSSFQYMYLLKDLWQKRQKQVKDNENVVNEYSSELEKHQLYIDETVNSNIPTNLRVLRSILENLRSKIQKLESDVSAQMEYCRT
notes: range 25-195; Expressed in E. coli; whole cell lysate on the blot; The text says it lacks the N-terminal 25 residues although the name begins at 25; not shown: N-terminal His-tag or GST fusion
Consider B8, for which the binding result with rSdrG(50-597) [4] is given as “no binding (tested: 0.5 µM)”.

B9: rβ(1-195) (ligand)
chain: QGVNDNEEGFFSARGHRPLDKKREEAPSLRPAPPPISGGGYRARPAKAAATQKKVERKAPDAGGCLHADPDLGVLCPTGCQLQEALLQQERPIRNSVDELNNNVEAVSQTSSSSFQYMYLLKDLWQKRQKQVKDNENVVNEYSSELEKHQLYIDETVNSNIPTNLRVLRSILENLRSKIQKLESDVSAQMEYCRT
notes: range 1-195; Expressed in E. coli; whole cell lysate on the blot; also called recombinant truncate encompassing residues 1-195; not shown: N-terminal His-tag or GST fusion
With B9, the binding result in the experiment with rSdrG(50-597) [3] was “binds”.

B10: rβ(1-341) (ligand)
chain: QGVNDNEEGFFSARGHRPLDKKREEAPSLRPAPPPISGGGYRARPAKAAATQKKVERKAPDAGGCLHADPDLGVLCPTGCQLQEALLQQERPIRNSVDELNNNVEAVSQTSSSSFQYMYLLKDLWQKRQKQVKDNENVVNEYSSELEKHQLYIDETVNSNIPTNLRVLRSILENLRSKIQKLESDVSAQMEYCRTPCTVSCNIPVVSGKECEEIIRKGGETSEMYLIQPDSSVKPYRVYCDMNTENGGWTVIQNRQDGSVDFGRKWDPYKQGFGNVATNTDGKNYCGLPGEYWLGNDKISQLTRMGPTELLIEMEDWKGDKVKAHYGGFTVQNEANKYQIS
notes: range 1-341; Expressed in E. coli; whole cell lysate on the blot; also called recombinant truncate encompassing residues 1-341; not shown: N-terminal His-tag or GST fusion
As to B10, in the experiment with rSdrG(50-597) [3], the binding result was “binds”.

B11: fibrinopeptide B (peptide)
peptide: QGVNDNEEGFFSAR
notes: Bought from Bachem; also called FpB; FpB (1-14)
In the case of B11, the “fold less active than the synthetic peptide β1-25 as inhibitor” value in the experiment with rSdrG(50-597) [6] turned out to be 10 fold.

B12: rβ(25-95) (ligand)
chain: EAPSLRPAPPPISGGGYRARPAKAAATQKKVERKAPDAGGCLHADPDLGVLCPTGCQLQEALLQQERPIRN
notes: range 25-95; Expressed in E. coli; whole cell lysate on the blot; The text says it lacks the N-terminal 25 residues although the name begins at 25; not shown: N-terminal His-tag or GST fusion
For B12, the binding result with rSdrG(50-597) [4] is “no binding (tested: 0.5 µM)”.

Values taken from patent US20030044418A1 (TEXAS A AND M UNIVERSITY SYSTEM UNIVERSITY, published 2003).
